Assay results from US20030092616A1, “STAT6 activation gene” (priority 2001, published 2003).

System: STAT6
Assay: Screening of full-length cDNA clones for promotion of STAT6 activation (luciferase reporter N4×8-luc)
Assay type: cell-based
Details: NIH3T3 cells cotransfected with N4×8-luc reporter and cDNA plasmid; 48 h culture, then mouse IL-4 0.5 ng/ml for 6 h
Summary of the method: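 Promotion of STAT6 activation scored as increase in luciferase signal over null-vector control cells. NIH3T3 cells carried N4×8-luc (100 ng) plus cDNA clone; after 48 h culture, 6 h stimulation with 0.5 ng/ml (final) mouse IL-4 preceded reading.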

B1: 417 (nucleic acid, listed as Homo sapiens)
chain: ATTCCTCCCAGGGACCCCAGACCTCTGTCTCTCTCGGCAGGCCTTGGCTCCTTGAACTTTTGGCCGCCATGTACTTCCCGAAGGTCCTCTCTGATGACATGAAGAAGCTGAAGGCCCGAATGCACCAGGCCATAGAAAGATTTTATGATAAAATGCAAAATGCAGAATCAGGACGTGGACAGGTGATGTCGAGCCTGGCAGAGCTGGAGGACGACTTCAAAGAGGGCTACCTGGAGACAGTGGCGGCTTATTATGAGGAGCAGCACCCAGAGCTCACTCCTCTACTTGAAAAAGAAAGAGATGGATTACGGTGCCGAGGCAACAGATCCCCTGTCCCGGATGTTGAGGATCCCGCAACCGAGGAGCCTGGGGAGAGCTTTTGTGACAAGGTCATGAGATGGTTCCAGGCCATGCTGCAGCGGCTGCAGACCTGGTGGCACGGGGTTCTGGCCTGGGTGAAGGAGAAGGTGGTGGCCCTGGTCCATGCAGTGCAGGCCCTCTGGAAACAGTTCCAGAGTTTCTGCTGCTCTCTGTCAGAGCTCTTCATGTCCTCTTTCCAGTCCTACGGAGCCCCACGGGGGGACAAGGAGGAGCTGACACCCCAGAAGTGCTCTGAACCCCAATCCTCAAAATGAAGATACTGACACCACCTTTGCCCTCCCCGTCACCGCGCACCCACCCTGACCCCTCCCTCAGCTGTCCTGTGCCCCGCCCTCTCCCGCACACTCAGTCCCCCTGCCTGGCGTTCCTGCCGCAGCTCTGACCTGGTGCTGTCGCCCTGGCATCTTAATAAAACCTGCTTATACTTCCCTGGC
modifications: CDS (69)..(632)
  Activity = (luciferase activity of the gene of each SEQ ID NO:)/(luciferase activity of pME18S-FL3): 13.4

B2: 177 (nucleic acid, listed as Homo sapiens)
chain: AAACGAAACGGTAACCAGCCCTGGGAAGCCCGCAAGAGGCCTCAGCGGTGGCCGTCCGAGCGCCGAGAGGTGAGGGTGCCCCCGCCTCACCTGCAGAGGGGCCGTTCCGGGCTCGAACCCGGCACCTTCCGGAAAATGGCGGCTGCCAGGCCCAGCCTGGGCCGAGTCCTCCCAGGATCCTCTGTCCTGTTCCTGTGTGACATGCAGGAGAAGTTCCGCCACAACATCGCCTACTTCCCACAGATCGTCTCAGTGGCTGCCCGCATGCTCAAGGTGGCCCGGCTGCTTGAGGTGCCAGTCATGCTGACGGAGCAGTACCCACAAGGCCTGGGCCCCACGGTGCCCGAGCTGGGGACTGAGGGCCTTCGGCCGCTGGCCAAGACCTGCTTCAGCATGGTGCCTGCCCTGCAGCAGGAGCTGGACAGTCGGCCCCAGCTGTGCTCTGTGCTGCTCTGTGGCATTGAGGCACAGGCCTGCATCTTGAACACGACCCTGGACCTCCTAGACCGGGGGCTGCAGGTCCATGTGGTGGTGGACGCCTGCTCCTCACGCAGCCAGGTGGACCGGCTGGTGGCTCTGGCCCGCATGAGACAGAGTGGTGCCTTCCTCTCCACCAGCGAAGGGCTCATTCTGCAGCTTGTGGGCGATGCCGTCCACCCCCAGTTCAAGGAGATCCAGAAACTCATCAAGGAGCCCGCCCCAGACAGCGGACTGCTGGGCCTCTTCCAAGGCCAGCTGCTCCCGGAAATGCAAATGAGACTCCTGGAAACTGGGTGGGAATTGGCTGAGCCGAGATGGAGGCGGGGCTCGGCCCCGGGCCACTTCACGGGGCGGGAAGGGGAGGGGAAGAAGAGTCTCAGACTGTGGGACACGGACTCGCAGAATAAACATATATGTGGCTGTG
modifications: CDS (136)..(903)
  Activity = (luciferase activity of the gene of each SEQ ID NO:)/(luciferase activity of pME18S-FL3): 22.6

B3: 159 (nucleic acid, listed as Homo sapiens)
chain: CCGGCGGGCTGGTGAGGAATGGAGCCGGTAGGCTGCTGCGGCGAGTGCCGCGGCTCCTCCGTAGACCCGCGGAGCACCTTCGTGTTGAGTAACCTGGCGGAGGTGGTGGAGCGTGTGCTCACCTTCCTGCCCGCCAAGGCGTTGCTGCGGGTGGCCTGCGTGTGCCGCTTATGGAGGGAGTGTGTGCGCAGAGTATTGCGGACCCATCGGAGCGTAACCTGGATCTCCGCAGGCCTGGCGGAGGCCGGCCACCTGGAGGGGCATTGCTTGGTTCGCGTGGTAGCAGAGGAGCTTGAGAATGTTCGCATCTTACCACATACAGTTCTTTACATGGCTGATTCAGAAACTTTCATTAGTCTGGAAGAGTGTCGTGGCCATAAGAGAGCAAGGAAAAGAACTAGTATGGAAACAGCACTTGCCCTTGAGAAGCTATTCCCCAAACAATGCCAAGTCCTTGGGATTGTGACCCCAGGAATTGTAGTGACTCCAATGGGATCAGGTAGCAATCGACCTCAGGAAATAGAAATTGGAGAATCTGGTTTTGCTTTATTATTCCCTCAAATTGAAGGAATAAAAATACAACCCTTTCATTTTATTAAGGATCCAAAGAATTTAACATTAGAAAGACATCAACTCACTGAAGTAGGTCTTTTAGATAACCCTGAACTTCGTGTGGTCCTTGTCTTTGGTTATAATTGCTGTAAGGTGGGAGCCAGTAATTATCTGCAGCAAGTAGTCAGCACTTTCAGTGATATGAATATCATCTTGGCTGGAGGCCAGGTGGACAACCTGTCATCACTGACTTCTGAAAAGAACCCTCTGGATATTGATGCCTCGGGTGTGGTTGGACTGTCATTTAGTGGACACCGAATCCAGAGTGCCACTGTGCTCCTCAACGAGGACGTCAGTGATGAGAAGACTGCTGAGGCTGCGATGCAGCGCCTCAAAGCGGCCAACATTCCAGAGCATAACACCATTGGCTTCATGTTTGCATGCGTTGGCAGGGGCTTTCAGTATTACAGAGCCAAGGGGAATGTTGAGGCTGATGCATTTAGAAAGTTTTTTCCTAGTGTTCCCTTATTCGGCTTCTTTGGAAATGGAGAAATTGGATGTGATCGGATAGTCACTGGGAACTTTATATTGAGGAAATGTAATGAGGTAAAAGATGATGATCTGTTTCATAGCTATACAACAATAATGGCACTCATACATCTGGGGTCATCTAAATAATAATTAAAGTGGCTTTCATAATATGT
modifications: CDS (19)..(1227)
  Activity = (luciferase activity of the gene of each SEQ ID NO:)/(luciferase activity of pME18S-FL3): 19.1

B4: 455 (nucleic acid, listed as Homo sapiens)
chain: ATGGTGTCCTGGATGATCTCCAGAGCCGTGGTGCTGGTGTTTGGAATGCTTTATCCTGCATATTATTCATACAAAGCTGTGAAAACAAAAAACGTGAAGGAATATGTTCGATGGATGATGTACTGGATTGTTTTTGCTCTCTATACTGTGATTGAAACAGTAGCCGATCAAACAGTTGCTTGGTTTCCCCTGTACTATGAGCTGAAGATTGCTTTTGTCATATGGCTGCTTTCTCCCTATACCAAAGGAGCAAGTTTAATATATAGAAAATTCCTTCATCCACTTCTTTCTTCAAAGGAAAGGGAGATTGATGATTATATTGTACAAGCAAAGGAACGAGGCTATGAAACCATGGTAAACTTTGGACGGCAAGGTTTAAACCTTGCAGCTACTGCTGCTGTTACTGCAGCAGTAAAGAGCCAAGGAGCAATAACTGAACGTTTAAGAAGCTTCAGTATGCATGATTTAACAACTATCCAAGGTGATGAGCCTGTGGGACAAAGACCATACCAACCTCTACCAGAAGCAAAAAAGAAAAGTAAACCAGCCCCCAGTGAATCAGCAGGTTATGGAATTCCACTGAAAGACGGAGATGAGAAAACAGATGAAGAAGCAGAGGGGCCATATTCAGATAATGAGATGTTAACACACAAAGGGCTTCGAAGATCGCAAAGCATGAAATCTGTGAAAACCACCAAAGGCCGCAAAGAGGTGCGGTACGGGTCACTAAAATACAAAGTGAAGAAACGACCACAAGTGTATTTTTAGTCATCTACACGTCAAATATCCC
modifications: CDS (1)..(765)
  Activity = (luciferase activity of the gene of each SEQ ID NO:)/(luciferase activity of pME18S-FL3): 3.3

B5: 423 (nucleic acid, listed as Homo sapiens)
chain: AAAAAAAAAGCTGGGAGCCGCCGCCCCCGCAGCTGCTGCCGCCGCCGCCAGGGCCCGGACTCGGACGCGTGGTAGCCCCAGGATGGGTGAGTTCAACGAGAAGAAGACAACATGTGGCACCGTTTGCCTCAAGTACCTGCTGTTTACCTACAATTGCTGCTTCTGGCTGGCTGGCCTGGCTGTCATGGCAGTGGGCATCTGGACGCTGGCCCTCAAGAGTGACTACATCAGCCTGCTGGCCTCAGGCACCTACCTGGCCACAGCCTACATCCTGGTGGTGGCGGGCACTGTCGTCATGGTGACTGGGGTCTTGGGCTGCTGCGCCACCTTCAAGGAGCGTCGGAACCTGCTGCGCCTGTACTTCATCCTGCTCCTCATCATCTTTCTGCTGGAGATCATCGCTGGTATCCTCGCCTACGCCTACTACCAGCAGCTGAACACGGAGCTCAAGGAGAACCTGAAGGACACCATGACCAAGCGCTACCACCAGCCGGGCCATGAGGCTGTGACCAGCGCTGTGGCAGCAACAACTCACAGGACTGGCGAGACAGTGAGTGGATCCGCTCACAGGAGGCCGGTGGCCGTGTGGTCCCAGACAGCTGCTGCAAGACGGTGGTGGCTCTTTGTGGGCAGCGAGACCATGCCTCCAACATCTACAAGGTGGAGGGCGGCTGCATCACCAAGTTGGAGACCTTCATCCAGGAGCACCTGAGGGTCATTGGGGCTGTGGGGATCGGCATTGCCTGTGTGCAGGTCTTTGGCATGATCTTCACGTGCTGCCTGTACAGGAGTCTCAAGCTGGAGCACTACTGACCCTGCCTTGGGCCTTGCTGCTGCTGCACCCAACTACTGAGCTGAGACCACTGAGTACCAGGGGCTGGGCTCCCTGATGACACCCACCCTGTGCCATCACCATAACCTCTGGGGACCCCAACCTCAGAGGCAGCTTCAAGTGCCTTTTGCTGCGCACCAATGCCCAGCAGGGGAGGTGAGGGGGGCTGGCGGGGCGAAGTTTGGGGGGTGTTTTGTGGGGCTCCCCAGACACACTCTCTGCCTGGTGGTCAGATGCAGGTTGGAAGGGGCCTTGCTGAGTGGCGCAAGGCCGAGCGTTCCCAGCAGGGGGAGAAACCCTTCACACCCCAGGCCCTTCAGGAACTGGGGCCTTGCCTTGCAGCCACATGGCCCCATCCCAGTTGGGGAAGCCAGGTGAGCTCTGACCCTTGGGCCTGGGCCTCTGCCCCTCCCAACCCAGCCCTCGTCTCCCTCGACAGCGCCCCTGCTGTCTTCCCCACCGCAGTCACCACCACCCGAAATGCCACGTGGTCACTGTGCACTGCCCTGTCCATGTGCCTCTGCGGGGCAGGGCCTTCCTGGTTTTGTTCACTGCTGTACCCAGATGCCTACAACCATCCCTGCCACATACAGGTGCTCAATAAACACTTGTAGAGCAGATGG
modifications: CDS (83)..(709)
  Activity = (luciferase activity of the gene of each SEQ ID NO:)/(luciferase activity of pME18S-FL3): 4.8
